Earlier results, collected in PMC2879464.
Like-named read-outs stand apart in the source and are kept apart here.

What was measured:
[1] = biological target: cortactin (Homo sapiens) (UniProt Q14247)
[2] = biological target: cortactin (Homo sapiens) (UniProt Q14247); remark: listed apart in the source

UniProt Q14247, sequence (Q14247 whole entry): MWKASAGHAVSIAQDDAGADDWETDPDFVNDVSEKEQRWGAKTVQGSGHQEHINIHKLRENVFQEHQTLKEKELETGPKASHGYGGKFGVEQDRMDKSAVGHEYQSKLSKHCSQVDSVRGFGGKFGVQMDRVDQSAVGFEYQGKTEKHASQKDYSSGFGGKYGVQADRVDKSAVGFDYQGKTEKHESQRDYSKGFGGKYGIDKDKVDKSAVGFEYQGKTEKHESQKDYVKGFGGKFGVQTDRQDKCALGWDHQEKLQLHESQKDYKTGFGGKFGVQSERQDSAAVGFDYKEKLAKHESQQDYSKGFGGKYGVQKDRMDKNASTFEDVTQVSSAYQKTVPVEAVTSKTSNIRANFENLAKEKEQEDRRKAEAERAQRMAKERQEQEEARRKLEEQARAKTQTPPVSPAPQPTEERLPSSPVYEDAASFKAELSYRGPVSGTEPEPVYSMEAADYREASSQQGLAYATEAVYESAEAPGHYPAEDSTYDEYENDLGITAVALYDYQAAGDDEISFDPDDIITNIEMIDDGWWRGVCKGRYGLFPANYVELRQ

**Q.** With nmMLCK2 (from UniProt Q15746) as the substance, how does the Kd [1] read?
**A.** 250 nM

**Q.** For nmMLCK1 (from UniProt Q15746), which Kd [2] is on record?
**A.** 1000 nM
